Reference: patent US20090318349
Positions count from the first letter of the chain named.

B1: mTGase from Streptomyces mobaraensis (protein)
chain: DSDDRVTPPAEPLDRMPDPYRPSYGRAETVVNNYIRKWQQVYSHRDGRKQQMTEEQREWLSYGCVGVTWVNSGQYPTNRLAFASFDEDRFKNELKNGRPRSGETRAEFEGRVAKESFDEEKGFQRAREVASVMNRALENAHDESAYLDNLKKELANGNDALRNEDARSPFYSALRNTPSFKERNGGNHDPSRMKAVIYSKHFWSGQDRSSSADKRKYGDPDAFRPAPGTGLVDMSRDRNIPRSPTSPGEGFVNFDYGWFGAQTEADADKTVWTHGNHYHAPNGSLGAMHVYESKFRNWSEGYSDFDRGAYVITFIPKSWNTAPDKVKQGWP
B2: Met-mTGase from S. mobaraensis (protein)
chain: MDSDDRVTPPAEPLDRMPDPYRPSYGRAETVVNNYIRKWQQVYSHRDGRKQQMTEEQREWLSYGCVGVTWVNSGQYPTNRLAFASFDEDRFKNELKNGRPRSGETRAEFEGRVAKESFDEEKGFQRAREVASVMNRALENAHDESAYLDNLKKELANGNDALRNEDARSPFYSALRNTPSFKERNGGNHDPSRMKAVIYSKHFWSGQDRSSSADKRKYGDPDAFRPAPGTGLVDMSRDRNIPRSPTSPGEGFVNFDYGWFGAQTEADADKTVWTHGNHYHAPNGSLGAMHVYESKFRNWSEGYSDFDRGAYVITFIPKSWNTAPDKVKQGWP
B3: Met-mTGase from S. ladakanum (protein)
chain: MDSDERVTPPAEPLDRMPDPYRPSYGRAETIVNNYIRKWQQVYSHRDGRKQQMTEEQREWLSYGCVGVTWVNSGQYPTNRLAFAFFDEDKYKNELKNGRPRSGETRAEFEGRVAKDSFDEAKGFQRARDVASVMNKALENAHDEGAYLDNLKKELANGNDALRNEDARSPFYSALRNTPSFKDRNGGNHDPSKMKAVIYSKHFWSGQDRSGSSDKRKYGDPEAFRPDRGTGLVDMSRDRNIPRSPTSPGESFVNFDYGWFGAQTEADADKTVWTHGNHYHAPNGSLGAMHVYESKFRNWSDGYSDFDRGAYVVTFVPKSWNTAPDKVKQGWP
B4: AlaPro-mTGase from S. mobaraensis (protein)
chain: APDSDDRVTPPAEPLDRMPDPYRPSYGRAETVVNNYIRKWQQVYSHRDGRKQQMTEEQREWLSYGCVGVTWVNSGQYPTNRLAFASFDEDRFKNELKNGRPRSGETRAEFEGRVAKESFDEEKGFQRAREVASVMNRALENAHDESAYLDNLKKELANGNDALRNEDARSPFYSALRNTPSFKERNGGNHDPSRMKAVIYSKHFWSGQDRSSSADKRKYGDPDAFRPAPGTGLVDMSRDRNIPRSPTSPGEGFVNFDYGWFGAQTEADADKTVWTHGNHYHAPNGSLGAMHVYESKFRNWSEGYSDFDRGAYVITFIPKSWNTAPDKVKQGWP
B5: GlyPro-mTGase from S. mobaraensis (protein)
chain: B4 chain with A1G
B6: AlaPro-mTGase from S. ladakanum (protein)
chain: APDSDERVTPPAEPLDRMPDPYRPSYGRAETIVNNYIRKWQQVYSHRDGRKQQMTEEQREWLSYGCVGVTWVNSGQYPTNRLAFAFFDEDKYKNELKNGRPRSGETRAEFEGRVAKDSFDEAKGFQRARDVASVMNKALENAHDEGAYLDNLKKELANGNDALRNEDARSPFYSALRNTPSFKDRNGGNHDPSKMKAVIYSKHFWSGQDRSGSSDKRKYGDPEAFRPDRGTGLVDMSRDRNIPRSPTSPGESFVNFDYGWFGAQTEADADKTVWTHGNHYHAPNGSLGAMHVYESKFRNWSDGYSDFDRGAYVVTFVPKSWNTAPDKVKQGWP
B7: GlyPro-mTGase_Y62H_Y75N from S. ladakanum (protein)
chain: B6 chain with A1G, Y64H, Y77N
B8: GlyPro-mTGase_Y62H_Y75F from S. ladakanum (protein)
chain: B6 chain with A1G, Y64H, Y77F, K329T
B9: GlyPro-mTGase from S. ladakanum (protein)
chain: B6 chain with A1G
B10: GlyPro-mTGase_Y75F from S. ladakanum (protein)
chain: B6 chain with A1G, Y77F
B11: GlyPro-mTGase_Y75N from S. ladakanum (protein)
chain: B6 chain with A1G, Y77N
B12: mature mTGase from Streptoverticillium ladakanum (protein)
chain: DSDERVTPPAEPLDRMPDPYRPSYGRAETIVNNYIRKWQQVYSHRDGRKQQMTEEQREWLSYGCVGVTWVNSGQYPTNRLAFAFFDEDKYKNELKNGRPRSGETRAEFEGRVAKDSFDEAKGFQRARDVASVMNKALENAHDEGAYLDNLKKELANGNDALRNEDARSPFYSALRNTPSFKDRNGGNHDPSKMKAVIYSKHFWSGQDRSGSSDKRKYGDPEAFRPDRGTGLVDMSRDRNIPRSPTSPGESFVNFDYGWFGAQTEADADKTVWTHGNHYHAPNGSLGAMHVYESKFRNWSDGYSDFDRGAYVVTFVPKSWNTAPDKVKQGWP

Legend:
[1] = target: hGHQ141N, P01241
Chain of hGHQ141N, P01241 (P01241 27-217 Q167N): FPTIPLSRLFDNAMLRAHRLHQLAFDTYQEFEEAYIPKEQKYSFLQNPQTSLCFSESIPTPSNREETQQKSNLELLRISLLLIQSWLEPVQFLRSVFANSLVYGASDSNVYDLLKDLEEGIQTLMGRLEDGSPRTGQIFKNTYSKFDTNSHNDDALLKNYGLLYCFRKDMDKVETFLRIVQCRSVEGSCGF

[2] = target: hGHQ40N, P01241
Chain of hGHQ40N, P01241 (P01241 27-217 Q66N): as the sequence (P01241 27-217 Q167N) above, with Q40N, N141Q counted along it

[3] = target: wild type human growth hormone, P01241
Chain of wild type human growth hormone, P01241 (P01241 27-217): as the sequence (P01241 27-217 Q167N) above, with N141Q counted along it

Protein | Activity towards hGHQ141N (RFU/sec/µg) [1] [RFU/sec/µg] | Activity towards hGHQ40N (RFU/sec/µg) [2] [RFU/sec/µg] | hGH conv. rate (%) [3] [%] | further results
B1 | 0.98 | 3.35 |  | HPLC peak area of product-Q40 [1]: area 296; Q141N (remaining substrate, normalized to 100) (normalized to 100) [1]: 81; product-Q40 (normalized to 100) (normalized to 100) [1]: 19; HPLC peak area of product-Q141 [2]: area 1283; Q40N (remaining substrate, normalized to 100) (normalized to 100) [2]: 29; product-Q141 (normalized to 100) (normalized to 100) [2]: 71
B2 | 1.24 | 5.44 |  | 
B3 | 0.8 | 4.74 |  | 
B4 | 1.56 | 5.05 | 33 | conversion rate, CE, reaction time 30 minutes [3]: conversion rate=32%; hGH conv. rate (%), reference of the separate experiment [3]: 39%
B5 | 1.13 | 4.28 |  | 
B6 | 1.02 | 6.91 |  | 
B7 |  |  | 38 | 
B8 |  |  | 49.4 | RS (relative selectivity), separate experiment [3]: 7.6; Selectivity (Q141/Q40), CE, separate experiment [3]: 76.5; hGH conv. rate (%), separate experiment [3]: 38.1%
B9 | 0.48 | 4.25 | 55 | 
B10 |  |  | 41 | hGH conversion rate, CE, reaction time 75 m [3]: hGH conversion rate=33%
B11 |  |  | 44 | hGH conversion rate, CE, reaction time 90 m [3]: hGH conversion rate=50%
B12 | 0.63 | 3.55 |  | HPLC peak area of product-Q40 [1]: area 127; Q141N (remaining substrate, normalized to 100) (normalized to 100) [1]: 90; product-Q40 (normalized to 100) (normalized to 100) [1]: 10; HPLC peak area of product-Q141 [2]: area 1238; Q40N (remaining substrate, normalized to 100) (normalized to 100) [2]: 23; product-Q141 (normalized to 100) (normalized to 100) [2]: 77
